Measurements published in the RNAGym collection of RNA variant scans (doi:10.1021/acssynbio.7b00057).

B1: Pistol ribozyme (parent)
chain: GGGUCGUUGUUCCAUAAUCGCGUGGAUAUGGCACGCAAGUUUCUACCGGGCACCGUAAAUGUCCGACUGGAGCCGUUCGGGCGGCUAUAAACAGACCUCAGGCCCGAAGCGUGGCGGCACCUGCCGCCGGUGGUAAAAAAGAUCGGAAGAGCACACGUCU

Variants of: B1
Experiment: aptazyme ON/OFF ratio, guanine; higher = stronger switching; co-transcriptional cleavage with and without guanine

Variant	aptazyme ON/OFF ratio
GGGUCGGAGACGGAUAAUCGCGUGGAUAUGGCACGCAAGUUUCUACCGGGCACCGUAAAUGUCCGACUGGAGCCGUUCGGGCGGCUAUAAACAGACCUCAGGCCCGAAGCGUGGCGGCACCUGCCGCCGGUGGUAAAAAAGAUCGGAAGAGCACACGUCU	1.07
GGGUCGGAGACGAAUAAUCGCGUGGAUAUGGCACGCAAGUUUCUACCGGGCACCGUAAAUGUCCGACUGGAGCCGUUCGGGCGGCUAUAAACAGACCUCAGGCCCGAAGCGUGGCGGCACCUGCCGCCGGUGGUAAAAAAGAUCGGAAGAGCACACGUCU	1.28
GGGUCGGAGACGUAUAAUCGCGUGGAUAUGGCACGCAAGUUUCUACCGGGCACCGUAAAUGUCCGACUGGAGCCGUUCGGGCGGCUAUAAACAGACCUCAGGCCCGAAGCGUGGCGGCACCUGCCGCCGGUGGUAAAAAAGAUCGGAAGAGCACACGUCU	1.18
GGGUCGGAGACCGAUAAUCGCGUGGAUAUGGCACGCAAGUUUCUACCGGGCACCGUAAAUGUCCGACUGGAGCCGUUCGGGCGGCUAUAAACAGACCUCAGGCCCGAAGCGUGGCGGCACCUGCCGCCGGUGGUAAAAAAGAUCGGAAGAGCACACGUCU	1.06
GGGUCGGAGACCUAUAAUCGCGUGGAUAUGGCACGCAAGUUUCUACCGGGCACCGUAAAUGUCCGACUGGAGCCGUUCGGGCGGCUAUAAACAGACCUCAGGCCCGAAGCGUGGCGGCACCUGCCGCCGGUGGUAAAAAAGAUCGGAAGAGCACACGUCU	1
GGGUCGGAGACCAAUAAUCGCGUGGAUAUGGCACGCAAGUUUCUACCGGGCACCGUAAAUGUCCGACUGGAGCCGUUCGGGCGGCUAUAAACAGACCUCAGGCCCGAAGCGUGGCGGCACCUGCCGCCGGUGGUAAAAAAGAUCGGAAGAGCACACGUCU	1.03
GGGUCGGAGAGUUAUAAUCGCGUGGAUAUGGCACGCAAGUUUCUACCGGGCACCGUAAAUGUCCGACUGGAGCCGUUCGGGCGGCUAUAAACAGACCUCAGGCCCGAAGCGUGGCGGCACCUGCCGCCGGUGGUAAAAAAGAUCGGAAGAGCACACGUCU	1.71
GGGUCGGAGAGUGAUAAUCGCGUGGAUAUGGCACGCAAGUUUCUACCGGGCACCGUAAAUGUCCGACUGGAGCCGUUCGGGCGGCUAUAAACAGACCUCAGGCCCGAAGCGUGGCGGCACCUGCCGCCGGUGGUAAAAAAGAUCGGAAGAGCACACGUCU	1.14
GGGUCGGAGAGUAAUAAUCGCGUGGAUAUGGCACGCAAGUUUCUACCGGGCACCGUAAAUGUCCGACUGGAGCCGUUCGGGCGGCUAUAAACAGACCUCAGGCCCGAAGCGUGGCGGCACCUGCCGCCGGUGGUAAAAAAGAUCGGAAGAGCACACGUCU	1.38
GGGUCGGAGACGCAUAAUCGCGUGGAUAUGGCACGCAAGUUUCUACCGGGCACCGUAAAUGUCCGACUGGAGCCGUUCGGGCGGCUAUAAACAGACCUCAGGCCCGAAGCGUGGCGGCACCUGCCGCCGGUGGUAAAAAAGAUCGGAAGAGCACACGUCU	1.26
GGGUCGGAGACACAUAAUCGCGUGGAUAUGGCACGCAAGUUUCUACCGGGCACCGUAAAUGUCCGACUGGAGCCGUUCGGGCGGCUAUAAACAGACCUCAGGCCCGAAGCGUGGCGGCACCUGCCGCCGGUGGUAAAAAAGAUCGGAAGAGCACACGUCU	1.31
GGGUCGGAGACUCAUAAUCGCGUGGAUAUGGCACGCAAGUUUCUACCGGGCACCGUAAAUGUCCGACUGGAGCCGUUCGGGCGGCUAUAAACAGACCUCAGGCCCGAAGCGUGGCGGCACCUGCCGCCGGUGGUAAAAAAGAUCGGAAGAGCACACGUCU	1.05
GGGUCGGAGAGCAAUAAUCGCGUGGAUAUGGCACGCAAGUUUCUACCGGGCACCGUAAAUGUCCGACUGGAGCCGUUCGGGCGGCUAUAAACAGACCUCAGGCCCGAAGCGUGGCGGCACCUGCCGCCGGUGGUAAAAAAGAUCGGAAGAGCACACGUCU	1.23
GGGUCGGAGAGCGAUAAUCGCGUGGAUAUGGCACGCAAGUUUCUACCGGGCACCGUAAAUGUCCGACUGGAGCCGUUCGGGCGGCUAUAAACAGACCUCAGGCCCGAAGCGUGGCGGCACCUGCCGCCGGUGGUAAAAAAGAUCGGAAGAGCACACGUCU	1.36
GGGUCGGAGAGCUAUAAUCGCGUGGAUAUGGCACGCAAGUUUCUACCGGGCACCGUAAAUGUCCGACUGGAGCCGUUCGGGCGGCUAUAAACAGACCUCAGGCCCGAAGCGUGGCGGCACCUGCCGCCGGUGGUAAAAAAGAUCGGAAGAGCACACGUCU	1.38
GGGUCGGAGAGGAAUAAUCGCGUGGAUAUGGCACGCAAGUUUCUACCGGGCACCGUAAAUGUCCGACUGGAGCCGUUCGGGCGGCUAUAAACAGACCUCAGGCCCGAAGCGUGGCGGCACCUGCCGCCGGUGGUAAAAAAGAUCGGAAGAGCACACGUCU	1.26
GGGUCGGAGAGGUAUAAUCGCGUGGAUAUGGCACGCAAGUUUCUACCGGGCACCGUAAAUGUCCGACUGGAGCCGUUCGGGCGGCUAUAAACAGACCUCAGGCCCGAAGCGUGGCGGCACCUGCCGCCGGUGGUAAAAAAGAUCGGAAGAGCACACGUCU	1.3
GGGUCGGAGAGGGAUAAUCGCGUGGAUAUGGCACGCAAGUUUCUACCGGGCACCGUAAAUGUCCGACUGGAGCCGUUCGGGCGGCUAUAAACAGACCUCAGGCCCGAAGCGUGGCGGCACCUGCCGCCGGUGGUAAAAAAGAUCGGAAGAGCACACGUCU	1.11

Variant	aptazyme ON/OFF ratio
GGGUCGGAGAGUCAUAAUCGCGUGGAUAUGGCACGCAAGUUUCUACCGGGCACCGUAAAUGUCCGACUGGAGCCGUUCGGGCGGCUAUAAACAGACCUCAGGCCCGAAGCGUGGCGGCACCUGCCGCCGGUGGUAAAAAAGAUCGGAAGAGCACACGUCU	1.14
GGGUCGGAGAGGCAUAAUCGCGUGGAUAUGGCACGCAAGUUUCUACCGGGCACCGUAAAUGUCCGACUGGAGCCGUUCGGGCGGCUAUAAACAGACCUCAGGCCCGAAGCGUGGCGGCACCUGCCGCCGGUGGUAAAAAAGAUCGGAAGAGCACACGUCU	1.33
GGGUCGGAGAGACAUAAUCGCGUGGAUAUGGCACGCAAGUUUCUACCGGGCACCGUAAAUGUCCGACUGGAGCCGUUCGGGCGGCUAUAAACAGACCUCAGGCCCGAAGCGUGGCGGCACCUGCCGCCGGUGGUAAAAAAGAUCGGAAGAGCACACGUCU	1.11
GGGUCGGAGCUACAUAAUCGCGUGGAUAUGGCACGCAAGUUUCUACCGGGCACCGUAAAUGUCCGACUGGAGCCGUUCGGGCGGCUAUAAACAGACCUCAGGCCCGAAGCGUGGCGGCACCUGCCGCCGGUGGUAAAAAAGAUCGGAAGAGCACACGUCU	1.5
GGGUCGGAGAGAGAUAAUCGCGUGGAUAUGGCACGCAAGUUUCUACCGGGCACCGUAAAUGUCCGACUGGAGCCGUUCGGGCGGCUAUAAACAGACCUCAGGCCCGAAGCGUGGCGGCACCUGCCGCCGGUGGUAAAAAAGAUCGGAAGAGCACACGUCU	1.19
GGGUCGGAGAGAAAUAAUCGCGUGGAUAUGGCACGCAAGUUUCUACCGGGCACCGUAAAUGUCCGACUGGAGCCGUUCGGGCGGCUAUAAACAGACCUCAGGCCCGAAGCGUGGCGGCACCUGCCGCCGGUGGUAAAAAAGAUCGGAAGAGCACACGUCU	1.17
GGGUCGGAGAGAUAUAAUCGCGUGGAUAUGGCACGCAAGUUUCUACCGGGCACCGUAAAUGUCCGACUGGAGCCGUUCGGGCGGCUAUAAACAGACCUCAGGCCCGAAGCGUGGCGGCACCUGCCGCCGGUGGUAAAAAAGAUCGGAAGAGCACACGUCU	1.17
GGGUCGGAGCUCCAUAAUCGCGUGGAUAUGGCACGCAAGUUUCUACCGGGCACCGUAAAUGUCCGACUGGAGCCGUUCGGGCGGCUAUAAACAGACCUCAGGCCCGAAGCGUGGCGGCACCUGCCGCCGGUGGUAAAAAAGAUCGGAAGAGCACACGUCU	2.69
GGGUCGGAGACCCAUAAUCGCGUGGAUAUGGCACGCAAGUUUCUACCGGGCACCGUAAAUGUCCGACUGGAGCCGUUCGGGCGGCUAUAAACAGACCUCAGGCCCGAAGCGUGGCGGCACCUGCCGCCGGUGGUAAAAAAGAUCGGAAGAGCACACGUCU	0.988
GGGUCGGAGAGCCAUAAUCGCGUGGAUAUGGCACGCAAGUUUCUACCGGGCACCGUAAAUGUCCGACUGGAGCCGUUCGGGCGGCUAUAAACAGACCUCAGGCCCGAAGCGUGGCGGCACCUGCCGCCGGUGGUAAAAAAGAUCGGAAGAGCACACGUCU	2.46
GGGUCGGAGACUGAUAAUCGCGUGGAUAUGGCACGCAAGUUUCUACCGGGCACCGUAAAUGUCCGACUGGAGCCGUUCGGGCGGCUAUAAACAGACCUCAGGCCCGAAGCGUGGCGGCACCUGCCGCCGGUGGUAAAAAAGAUCGGAAGAGCACACGUCU	1.23
GGGUCGGAGACUAAUAAUCGCGUGGAUAUGGCACGCAAGUUUCUACCGGGCACCGUAAAUGUCCGACUGGAGCCGUUCGGGCGGCUAUAAACAGACCUCAGGCCCGAAGCGUGGCGGCACCUGCCGCCGGUGGUAAAAAAGAUCGGAAGAGCACACGUCU	1.18
GGGUCGGAGACUUAUAAUCGCGUGGAUAUGGCACGCAAGUUUCUACCGGGCACCGUAAAUGUCCGACUGGAGCCGUUCGGGCGGCUAUAAACAGACCUCAGGCCCGAAGCGUGGCGGCACCUGCCGCCGGUGGUAAAAAAGAUCGGAAGAGCACACGUCU	1.19
GGGUCGGAGACAGAUAAUCGCGUGGAUAUGGCACGCAAGUUUCUACCGGGCACCGUAAAUGUCCGACUGGAGCCGUUCGGGCGGCUAUAAACAGACCUCAGGCCCGAAGCGUGGCGGCACCUGCCGCCGGUGGUAAAAAAGAUCGGAAGAGCACACGUCU	1.25
GGGUCGGAGACAAAUAAUCGCGUGGAUAUGGCACGCAAGUUUCUACCGGGCACCGUAAAUGUCCGACUGGAGCCGUUCGGGCGGCUAUAAACAGACCUCAGGCCCGAAGCGUGGCGGCACCUGCCGCCGGUGGUAAAAAAGAUCGGAAGAGCACACGUCU	1.26
GGGUCGGAGACAUAUAAUCGCGUGGAUAUGGCACGCAAGUUUCUACCGGGCACCGUAAAUGUCCGACUGGAGCCGUUCGGGCGGCUAUAAACAGACCUCAGGCCCGAAGCGUGGCGGCACCUGCCGCCGGUGGUAAAAAAGAUCGGAAGAGCACACGUCU	1.17
GGGUCGGAGCUAGAUAAUCGCGUGGAUAUGGCACGCAAGUUUCUACCGGGCACCGUAAAUGUCCGACUGGAGCCGUUCGGGCGGCUAUAAACAGACCUCAGGCCCGAAGCGUGGCGGCACCUGCCGCCGGUGGUAAAAAAGAUCGGAAGAGCACACGUCU	1.27
GGGUCGGAGCUAAAUAAUCGCGUGGAUAUGGCACGCAAGUUUCUACCGGGCACCGUAAAUGUCCGACUGGAGCCGUUCGGGCGGCUAUAAACAGACCUCAGGCCCGAAGCGUGGCGGCACCUGCCGCCGGUGGUAAAAAAGAUCGGAAGAGCACACGUCU	1.39
